Data as given in US20130184211A1 (NEW YORK UNIVERSITY, published 2013).

T1: ectodomain of murine Klotho (A35 to K982) with C-terminal FLAG tag (murine, UniProt O35082 35-982)
T1 construct: range 35-982; Purified from culture media of HEK293 cells; also called Klotho ectodomain; not shown: C-terminal FLAG tag
T1 sequence (looked up): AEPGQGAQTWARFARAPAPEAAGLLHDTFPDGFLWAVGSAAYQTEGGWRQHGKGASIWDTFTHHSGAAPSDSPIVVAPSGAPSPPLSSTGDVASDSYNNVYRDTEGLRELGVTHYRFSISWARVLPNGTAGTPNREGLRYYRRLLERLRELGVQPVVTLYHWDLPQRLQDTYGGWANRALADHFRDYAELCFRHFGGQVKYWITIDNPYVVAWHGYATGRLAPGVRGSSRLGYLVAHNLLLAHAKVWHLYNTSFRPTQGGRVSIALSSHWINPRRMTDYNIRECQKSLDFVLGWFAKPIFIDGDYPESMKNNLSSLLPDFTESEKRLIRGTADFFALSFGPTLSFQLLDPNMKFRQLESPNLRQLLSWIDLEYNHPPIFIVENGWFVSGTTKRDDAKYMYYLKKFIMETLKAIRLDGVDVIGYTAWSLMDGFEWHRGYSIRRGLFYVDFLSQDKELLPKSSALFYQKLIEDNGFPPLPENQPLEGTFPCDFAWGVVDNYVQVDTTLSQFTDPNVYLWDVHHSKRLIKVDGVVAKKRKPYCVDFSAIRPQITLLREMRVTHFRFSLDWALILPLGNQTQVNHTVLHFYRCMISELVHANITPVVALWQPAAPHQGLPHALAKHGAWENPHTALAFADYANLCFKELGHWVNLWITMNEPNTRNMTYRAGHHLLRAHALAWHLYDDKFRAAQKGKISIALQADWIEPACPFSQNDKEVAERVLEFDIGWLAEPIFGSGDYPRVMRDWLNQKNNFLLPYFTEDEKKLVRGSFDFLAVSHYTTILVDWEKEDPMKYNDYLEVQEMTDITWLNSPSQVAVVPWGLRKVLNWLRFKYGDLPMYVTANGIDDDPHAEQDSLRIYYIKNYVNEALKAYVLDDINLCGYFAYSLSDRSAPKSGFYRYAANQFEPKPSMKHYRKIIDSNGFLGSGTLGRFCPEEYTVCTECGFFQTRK

T2: 1:1 binary complex of the ectodomains of FGFR1c and Klotho (human; murine, UniProt O35082 35-982)
T2 construct: range 35-982; also called FGFR1c-Klotho complex; binary FGFR1c-Klotho complex; not shown: C-terminal FLAG tag
T2 sequence 1: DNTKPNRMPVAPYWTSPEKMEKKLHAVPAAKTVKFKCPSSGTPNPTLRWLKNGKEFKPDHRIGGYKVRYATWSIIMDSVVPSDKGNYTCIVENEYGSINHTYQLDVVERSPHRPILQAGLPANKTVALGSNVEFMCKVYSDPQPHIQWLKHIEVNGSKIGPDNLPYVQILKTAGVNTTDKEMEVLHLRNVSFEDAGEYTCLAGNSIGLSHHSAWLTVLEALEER
T2 sequence 2: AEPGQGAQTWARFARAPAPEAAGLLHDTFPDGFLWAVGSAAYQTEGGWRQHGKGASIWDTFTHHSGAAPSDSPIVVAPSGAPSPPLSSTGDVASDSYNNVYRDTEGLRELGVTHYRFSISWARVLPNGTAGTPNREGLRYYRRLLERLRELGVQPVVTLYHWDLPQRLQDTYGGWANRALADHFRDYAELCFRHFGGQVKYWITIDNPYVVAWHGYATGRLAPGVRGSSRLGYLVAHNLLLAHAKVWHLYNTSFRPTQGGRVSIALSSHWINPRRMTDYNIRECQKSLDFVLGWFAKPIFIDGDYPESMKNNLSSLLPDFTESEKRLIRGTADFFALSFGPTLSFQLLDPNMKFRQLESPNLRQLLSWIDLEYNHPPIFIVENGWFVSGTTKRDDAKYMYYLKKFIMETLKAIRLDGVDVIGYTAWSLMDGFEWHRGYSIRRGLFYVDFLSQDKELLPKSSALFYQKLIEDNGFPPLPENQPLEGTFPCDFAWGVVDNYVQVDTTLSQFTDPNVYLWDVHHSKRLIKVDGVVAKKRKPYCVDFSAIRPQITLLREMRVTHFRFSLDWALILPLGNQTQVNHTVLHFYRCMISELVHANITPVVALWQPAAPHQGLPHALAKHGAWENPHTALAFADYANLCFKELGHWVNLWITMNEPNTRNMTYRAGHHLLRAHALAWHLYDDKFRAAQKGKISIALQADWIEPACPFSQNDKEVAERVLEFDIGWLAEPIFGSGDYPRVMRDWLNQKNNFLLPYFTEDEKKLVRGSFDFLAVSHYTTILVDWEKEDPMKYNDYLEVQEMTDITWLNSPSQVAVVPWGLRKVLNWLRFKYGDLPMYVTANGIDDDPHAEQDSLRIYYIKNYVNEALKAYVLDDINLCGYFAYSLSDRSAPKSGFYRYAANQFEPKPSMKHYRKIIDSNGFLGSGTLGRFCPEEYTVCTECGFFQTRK


Assays:
[1] = molecular target: T1, ectodomain of murine Klotho (A35 to …); assay: SPR; Klotho ectodomain immobilized, increasing FGFR1c ectodomain injected; fitted saturation binding curve
Method: Proteins were immobilized by amine coupling on flow channels of research grade CMS chips (Biacore AB). Proteins were injected over a CMS chip at a flow rate of 50 μl min⁻¹, and at the end of each protein injection (180 s), HBS-EP buffer (50 μl min⁻¹) was flowed over the chip to monitor dissociation for 180 s. The chip surface was then regenerated by injecting 50 μl of 2.0 M NaCl in 10 mM sodium acetate, pH 4.5. […] For each protein injection over a Klotho chip, the nonspecific responses from the β-glucuronidase control flow channel were subtracted from the responses recorded for the Klotho flow channel. Similarly, for each protein injection over a FGF chip, the nonspecific responses from the FHF1B control flow channel were subtracted from the responses recorded for the FGF flow channel. Each set of experiments was repeated at least three times, and for each experiment, at least two protein injections were repeated two to five times to monitor chip performance and to verify reproducibility of the binding responses.
The size-exclusion data showing that Klotho and FGFR1c ectodomains form a stable binary complex (FIG. 1B) indicate that Klotho must harbor a high affinity binding site for FGFR1c. To further confirm this, surface plasmon resonance (SPR) spectroscopy was used to determine the dissociation constant of the FGFR1c-Klotho interaction. […]

[2] = molecular target: T2, 1:1 binary complex of the ectodomains …; assay: SPR competition; competitor FGF23^28-251 immobilized, fixed FGFR1c-Klotho complex
Method: Increasing concentrations of FGF23²⁸⁻²⁵¹ (0-50 nM) were mixed with a fixed concentration of 1:1 complex of the ectodomains of FGFR1c and Klotho (15 nM and 20 nM, respectively) in HBS-EP buffer, and the mixtures were passed over the FGF23 chip. In the other—reverse—assay, FGF23¹⁸⁰⁻²⁵¹ was immobilized on a chip (˜48.4 fmole/mm² of flow channel). Increasing concentrations of FGF23²⁸⁻²⁵¹ (0-50 nM) were mixed with a fixed concentration of 1:1 complex of the ectodomains of FGFR1c and Klotho (20 nM) in HBS-EP buffer, and the mixtures were passed over the chip. As a control, competition of FGF23 C-terminal tail peptide in solution with immobilized FGF23 C-terminal tail peptide for binding to the binary FGFR1c-Klotho complex was studied. Increasing concentrations of FGF23¹⁸⁰⁻²⁵¹ (0-400 nM) were mixed with a fixed concentration of 1:1 complex of the ectodomains of FGFR1c and Klotho (20 nM) in HBS-EP buffer, and the mixtures were passed over the FGF23¹⁸⁰⁻²⁵¹ chip.
To fully nail down that the C-terminal tail of FGF23 mediates FGF23 binding to the binary FGFR1c-Klotho complex, a fixed concentration of FGFR1c-Klotho was mixed with increasing concentrations of FGF23¹⁸⁰⁻²⁵¹, and the mixtures were passed over the FGF23 chip. Mixtures of FGF23²⁸⁻²⁵¹ with FGFR1c-Klotho were used as a control. […] Similar results were obtained using the “reverse” SPR assay format, where FGF23¹⁸⁰⁻²⁵¹ was immobilized on a chip and mixtures of a fixed concentration of FGFR1c-Klotho complex with increasing concentrations of FGF23²⁸⁻²⁵¹ were passed over the chip (FIG. 3E). Mixtures of FGF23¹⁸⁰⁻²⁵¹ with FGFR1c-Klotho were used as a control (FIG. 3F). To verify the specificity of the interaction between the FGF23 C-terminal tail and the FGFR1c-Klotho complex, the C-terminal tail peptide of FGF21 and FGFR1c-Klotho were mixed at molar ratios of 6:1 and 10:1, and the mixtures were injected over a FGF23 chip.

[3] = molecular target: T2, 1:1 binary complex of the ectodomains …; assay: SPR competition dose-response: FGF23^28-251 mixed with a fixed concentration of FGFR1c-Klotho, immobilized FGF23^28-251 as competitor; averaged data of two to three experiments
Description: For each protein injection over a Klotho chip, the nonspecific responses from the β-glucuronidase control flow channel were subtracted from the responses recorded for the Klotho flow channel. Similarly, for each protein injection over a FGF chip, the nonspecific responses from the FHF1B control flow channel were subtracted from the responses recorded for the FGF flow channel. Each set of experiments was repeated at least three times, and for each experiment, at least two protein injections were repeated two to five times to monitor chip performance and to verify reproducibility of the binding responses.
To examine whether the C-terminal tail of FGF23 can compete with full-length FGF23 for binding to the binary FGFR1c-Klotho complex, two assay formats were employed. In one assay, FGF23²⁸⁻²⁵¹ was immobilized on a chip (˜16-53 fmole/mm² of flow channel). Increasing concentrations of FGF23¹⁸⁰⁻²⁵¹ (0-400 nM) were mixed with a fixed concentration of 1:1 complex of the ectodomains of FGFR1c and Klotho (10 nM, 15 nM and 20 nM, respectively) in HBS-EP buffer, and the mixtures were passed over the chip. As a control, competition of FGF23 in solution with immobilized FGF23 for binding to the binary FGFR1c-Klotho complex was studied. […]

Binder | Kd [1] [nM] | molar amount relative to FGFR1c-Klotho complex at 50% inhibition [2] [fold molar amount] | IC50 (read off the curve) [3] [nM]
ligand-binding domain of human FGFR1c (D142 to R365) (receptor, Expressed in E. coli; also called FGFR1c ectodomain) DNTKPNRMPVAPYWTSPEKMEKKLHAVPAAKTVKFKCPSSGTPNPTLRWLKNGKEFKPDHRIGGYKVRYATWSIIMDSVVPSDKGNYTCIVENEYGSINHTYQLDVVERSPHRPILQAGLPANKTVALGSNVEFMCKVYSDPQPHIQWLKHIEVNGSKIGPDNLPYVQILKTAGVNTTDKEMEVLHLRNVSFEDAGEYTCLAGNSIGLSHHSAWLTVLEALEER | 72 | – | –
human FGF23 (A28 to I251), FGF23^28-251, with R176Q and R179Q (ligand, also called full-length FGF23) ASPLLGSSWGGLIHLYTATARNSYHLQIHKNGHVDGAPHQTIYSALMIRSEDAGFVVITGVMSRRYLCMDFRGNIFGSHYFDPENCRFQHQTLENGYDVYHSPQYHFLVSLGRAKRAFLPGMNPPPYSQFLSRRNEIPLIHFNTPIPRQHTQSAEDDSERDPLNVLKPRARMTPAPASCSQELPSAEDNSPMASDPLGVVRGGRVNTHAGGTGPEGCRPFAKFI | – | < 1 | ~20
